From paper PMC5414288 (2017)
No end group written: not given here. *: point of attachment. HYNIC = NNc1ccc(C(=O)*)cn1

Target: EGFR (on SKOV3 cells) (Homo sapiens, UniProt P00533)
Assay: saturation binding assay on SKOV3 cells (radioligand)

Binder: {HYNIC}-SSSYHWYGYTPQNVI (also: 99mTc-tricine labeled) [HYNIC-SSS-GE11 peptide]
- Kd: 73 nM
